The values below come from patent US20230416825A1.

Where two headings read alike, the source gives them in different places.

For test [1], the target named is Recombinant human KLK5 (Genentech) (human) (UniProt Q9Y337). In words: cell-based or functional assay.
The target is the same in test [2]. The experiment in a line: cell-based or functional assay. This is another data set of the same source.

UniProt Q9Y337, sequence (Q9Y337 67-293 limits assumed, form in doubt): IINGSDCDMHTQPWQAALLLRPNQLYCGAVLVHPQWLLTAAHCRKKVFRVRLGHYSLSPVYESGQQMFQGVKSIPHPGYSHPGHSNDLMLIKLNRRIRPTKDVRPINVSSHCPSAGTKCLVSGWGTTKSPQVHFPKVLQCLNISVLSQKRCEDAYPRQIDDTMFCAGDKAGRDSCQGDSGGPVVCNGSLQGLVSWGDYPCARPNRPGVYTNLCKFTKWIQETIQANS

As for “mAb1108 (Monoclonal Mouse IgG2b Clone #193318, R & D Systems, Minneapolis, MN) (antibody)”, in test [1], the IC50, LC/MS assay of KLK5 (0.5 nM) cleavage of pro-KLK1 stood at 0.34 nM; the IC50, LC/MS assay of KLK5 (5 nM) cleavage of pro-KLK7 (15 nM) is 1.86 nM; the direct KLK5 activity assay at 20, 10, 5 and 2.5 nM KLK5: reduction in cleavage of the fluorescent peptide substrate was determined as 30%; the maximum KLK5 inhibition, LC/MS assay of KLK5 (0.5 nM) cleavage of pro-KLK1 is 40%.

B1: SPINK9 (I20-C86.C22S.H48R.M49E)-Fc (Fc fusion, not shown: a dimerising Fc or GST)
chain: IESAKQTKQMVDCSHYKKLPPGQQRFCHREYDPICGSDGKTYKNDCFFCSKVKKTDGTLKFVHFGKC
In the case of B1, in test [2], the IC50, LC/MS assay of KLK5 (0.5 nM) cleavage of pro-KLK1 came to 0.58 nM and the IC50, LC/MS assay of KLK5 (5 nM) cleavage of pro-KLK7 (15 nM) is 1.13 nM.
